Our source for the Kd, koff and kon values is patent publication US20230056252A1 (Gilead, published 2023).

Test [1] deals with T1, biotinylated CD3 epsilon:delta heterodimer protein (Amsbio AMS.CDD-H52WO) (Homo sapiens (Human), UniProt P07766 23-126; P04234 22-105).
T1 construct: also called CD3 heterodimer
The test can be described thus: BLI (Octet), CD3 on SA sensor, bispecific analyte. Background: In BLI a coated tip is dipped into the sample, and binding shifts an interference pattern.

Test [2] deals with T2, biotinylated Human CD3E and CD3D (Acro Biosystems Cat CDD-H82W1) (human, UniProt P07766 23-126; P04234 22-105).
T2 construct: also called biotinylated CD3
The test can be described thus: SPR (Biacore 4000), CD3 captured on streptavidin chip. (SPR reads the build-up and loss of mass on a sensor chip optically.)

What is called Kd is the concentration at which binding is half-saturated. A low value points to tighter binding. What is called koff is a measure of how fast the partners let go of each other. As a reminder, the kon is the second-order rate constant of association.

B1: hPGT121.66 AAS + W/huSP34.3.8 scFv AAS + SAV + R (bispecific antibody, human IgG1, lambda, L234A L235A)
chain: EVQLVESGGGLVQPGGSLRLSCAASGFTFNTYAMNWVRQAPGKGLEWVGRIRSKYNNYATYYADSVKGRFTISRDDSKNSLYLQMNSLRTEDTAVYYCVRHGNFGHSYVSWFAYWGQGTLVTVSSGGGGSGGGGSGGGGSGGGGSQAVVTQEPSLTVSPGGTVTLTCGSSTGAVTTGHYANWVQQKPGQAPRGLIGGTNKRAPGVPARFSGSLLGGKAALTISGAQPEDEAEYYCALWYSNRWVFGGGTKLTVLEPKSSDKTHTCPPCPAPEAAGGPSVFLFPPKPKDTLMISRTPEVTCVVVDVSHEDPEVKFNWYVDGVEVHNAKTKPREEQYNSTYRVVSVLTVLHQDWLNGKEYKCKVSNKALPASIEKTISKAKGQPREPQVYTLPPSREEMTKNQVSLSCAVKGFYPSDIAVEWESNGQPENNYKTTPPVLDSDGSFFLVSKLTVDKSRWQQGNVFSCSVMHEALHNRYTQKSLSLSPGK
heavy: QMQLQESGPGLVKPSETLSLTCSVSGASISDSYWSWIRRSPGKGLEWIGYVHKSGDTNYNPSLKSRVHLSLDTSKNQVSLSLTGVTAADSGKYYCARTLHGRRIYGIVAFNEWFTYFYMDVWGTGTQVTVSSASTKGPSVFPLAPSSKSTSGGTAALGCLVKDYFPEPVTVSWNSGALTSGVHTFPAVLQSSGLYSLSSVVTVPSSSLGTQTYICNVNHKPSNTKVDKKVEPKSCDKTHTCPPCPAPEAAGGPSVFLFPPKPKDTLMISRTPEVTCVVVDVSHEDPEVKFNWYVDGVEVHNAKTKPREEQYNSTYRVVSVLTVLHQDWLNGKEYKCKVSNKALPASIEKTISKAKGQPREPQVYTLPPSREEMTKNQVSLWCLVKGFYPSDIAVEWESNGQPENNYKTTPPVLDSDGSFFLYSKLTVDKSRWQQGNVFSCSVMHEALHNHYTQKSLSLSPGK
light: not shown
In test [1], B1 came in with a Kd of 7.1 nM, a koff of 0.000475 s⁻¹ and a kon of 66600 M⁻¹ s⁻¹. In test [2], this molecule had a dissociation constant Kd of 2.5 nM, a koff of 0.0071 s⁻¹ and an on-rate constant (kon) of 2.8e+06 M⁻¹ s⁻¹.

B2: hPGT121.66 AAS + W/huSP34.13.8 scFv AAS + SAV + R (bispecific antibody, human IgG1, lambda, L234A L235A)
chain: EVQLVESGGGLVQPGGSLRLSCAASGFTFSTYAMNWVRQAPGKGLEWVGRIRSKYNNYATYYAASVKGRFTISRDDSKNTLYLQMNSLRTEDTAVYYCVRHGNFGHSYVSWFAYWGQGTLVTVSSGGGGSGGGGSGGGGSGGGGSQAVVTQEPSLTVSPGGTVTLTCGSSTGAVTTGHYANWVQQKPGQAPRGLIGGTNKRAPGVPARFSGSLLGGKAALTISGAQPEDEAEYYCALWYSNRWVFGGGTKLTVLEPKSSDKTHTCPPCPAPEAAGGPSVFLFPPKPKDTLMISRTPEVTCVVVDVSHEDPEVKFNWYVDGVEVHNAKTKPREEQYNSTYRVVSVLTVLHQDWLNGKEYKCKVSNKALPASIEKTISKAKGQPREPQVYTLPPSREEMTKNQVSLSCAVKGFYPSDIAVEWESNGQPENNYKTTPPVLDSDGSFFLVSKLTVDKSRWQQGNVFSCSVMHEALHNRYTQKSLSLSPGK
heavy: QMQLQESGPGLVKPSETLSLTCSVSGASISDSYWSWIRRSPGKGLEWIGYVHKSGDTNYNPSLKSRVHLSLDTSKNQVSLSLTGVTAADSGKYYCARTLHGRRIYGIVAFNEWFTYFYMDVWGTGTQVTVSSASTKGPSVFPLAPSSKSTSGGTAALGCLVKDYFPEPVTVSWNSGALTSGVHTFPAVLQSSGLYSLSSVVTVPSSSLGTQTYICNVNHKPSNTKVDKKVEPKSCDKTHTCPPCPAPEAAGGPSVFLFPPKPKDTLMISRTPEVTCVVVDVSHEDPEVKFNWYVDGVEVHNAKTKPREEQYNSTYRVVSVLTVLHQDWLNGKEYKCKVSNKALPASIEKTISKAKGQPREPQVYTLPPSREEMTKNQVSLWCLVKGFYPSDIAVEWESNGQPENNYKTTPPVLDSDGSFFLYSKLTVDKSRWQQGNVFSCSVMHEALHNHYTQKSLSLSPGK
light: not shown
notes: also called 261; bispecific 261
As for B2, in test [1], the equilibrium dissociation constant (Kd) came out at 20.8 nM, the dissociation rate constant (koff) stood at 0.000947 s⁻¹ and the on-rate constant (kon) stood at 48500 M⁻¹ s⁻¹.

B3: hPGT121.66 AAS + W/huSP34.34.11 scFv AAS + SAV + R (bispecific antibody, human IgG1, lambda, L234A L235A)
chain: EVQLVESGGGLVQPGGSLRLSCAASGFTFNTYAMNWVRQAPGKGLEWVGRIRSKYNNYATYYAASVKGRFTISRDDSKNSLYLQMNSLKTEDTAMYYCVRHGNFGHSYVSWFAYWGQGTLVTVSSGGGGSGGGGSGGGGSGGGGSQAVVTQEPSLTVSPGGTVTLTCGSSTGAVTTGHYANWVQQKPGQAPRGLIGGTNKRAPGVPARFSGSLLGGKAALTLSGAQPEDEAEYYCALWYSNLWVFGGGTKLTVLEPKSSDKTHTCPPCPAPEAAGGPSVFLFPPKPKDTLMISRTPEVTCVVVDVSHEDPEVKFNWYVDGVEVHNAKTKPREEQYNSTYRVVSVLTVLHQDWLNGKEYKCKVSNKALPASIEKTISKAKGQPREPQVYTLPPSREEMTKNQVSLSCAVKGFYPSDIAVEWESNGQPENNYKTTPPVLDSDGSFFLVSKLTVDKSRWQQGNVFSCSVMHEALHNRYTQKSLSLSPGK
heavy: QMQLQESGPGLVKPSETLSLTCSVSGASISDSYWSWIRRSPGKGLEWIGYVHKSGDTNYNPSLKSRVHLSLDTSKNQVSLSLTGVTAADSGKYYCARTLHGRRIYGIVAFNEWFTYFYMDVWGTGTQVTVSSASTKGPSVFPLAPSSKSTSGGTAALGCLVKDYFPEPVTVSWNSGALTSGVHTFPAVLQSSGLYSLSSVVTVPSSSLGTQTYICNVNHKPSNTKVDKKVEPKSCDKTHTCPPCPAPEAAGGPSVFLFPPKPKDTLMISRTPEVTCVVVDVSHEDPEVKFNWYVDGVEVHNAKTKPREEQYNSTYRVVSVLTVLHQDWLNGKEYKCKVSNKALPASIEKTISKAKGQPREPQVYTLPPSREEMTKNQVSLWCLVKGFYPSDIAVEWESNGQPENNYKTTPPVLDSDGSFFLYSKLTVDKSRWQQGNVFSCSVMHEALHNHYTQKSLSLSPGK
light: not shown
Turning to B3, in test [1], the affinity, expressed as Kd, was 16 nM; the koff is 0.00172 s⁻¹; the on-rate (kon) is 116000 M⁻¹ s⁻¹. In test [2], this molecule showed a Kd of 3.9 nM, a koff of 0.0129 s⁻¹ and a kon of 3.3e+06 M⁻¹ s⁻¹.

B4: hPGT121.66 AAS + W/huSP34.34.3 scFv AAS + SAV + R (bispecific antibody, human IgG1, lambda, L234A L235A)
chain: not shown
heavy: QMQLQESGPGLVKPSETLSLTCSVSGASISDSYWSWIRRSPGKGLEWIGYVHKSGDTNYNPSLKSRVHLSLDTSKNQVSLSLTGVTAADSGKYYCARTLHGRRIYGIVAFNEWFTYFYMDVWGTGTQVTVSSASTKGPSVFPLAPSSKSTSGGTAALGCLVKDYFPEPVTVSWNSGALTSGVHTFPAVLQSSGLYSLSSVVTVPSSSLGTQTYICNVNHKPSNTKVDKKVEPKSCDKTHTCPPCPAPEAAGGPSVFLFPPKPKDTLMISRTPEVTCVVVDVSHEDPEVKFNWYVDGVEVHNAKTKPREEQYNSTYRVVSVLTVLHQDWLNGKEYKCKVSNKALPASIEKTISKAKGQPREPQVYTLPPSREEMTKNQVSLWCLVKGFYPSDIAVEWESNGQPENNYKTTPPVLDSDGSFFLYSKLTVDKSRWQQGNVFSCSVMHEALHNHYTQKSLSLSPGK
light: not shown
Regarding B4, in test [1], the Kd turned out to be 10.3 nM, the koff was determined as 0.00619 s⁻¹ and the kon is 620000 M⁻¹ s⁻¹. In test [2], this molecule showed a Kd of 43 nM, a koff of 0.017 s⁻¹ and a kon of 390000 M⁻¹ s⁻¹.

B5: hCD4D1.22 Fc AAS + W + YTE/huSP34.40.13 AAS + SAV + R (bispecific antibody, human IgG1, lambda, L234A L235A)
chain: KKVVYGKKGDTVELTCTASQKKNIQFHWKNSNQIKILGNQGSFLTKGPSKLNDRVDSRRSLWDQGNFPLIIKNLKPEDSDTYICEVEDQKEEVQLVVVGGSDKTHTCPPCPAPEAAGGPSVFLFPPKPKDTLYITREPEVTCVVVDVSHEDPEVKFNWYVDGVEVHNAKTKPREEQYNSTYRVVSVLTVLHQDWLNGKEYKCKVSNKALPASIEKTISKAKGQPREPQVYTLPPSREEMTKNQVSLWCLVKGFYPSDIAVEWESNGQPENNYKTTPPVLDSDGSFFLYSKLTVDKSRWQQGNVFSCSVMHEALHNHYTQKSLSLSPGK
heavy: EVQLVESGGGLVQPGGSLRLSCAASGFTFNTYAMNWVRQAPGKGLEWVGRIRSKYNNYAAYYADSVKSRFTISRDDSKNSLYLQMNSLRTEDTAVYYCVRHGNFGHSYVSWFAYWGQGTLVTVSSASTKGPSVFPLAPSSKSTSGGTAALGCLVKDYFPEPVTVSWNSGALTSGVHTFPAVLQSSGLYSLSSVVTVPSSSLGTQTYICNVNHKPSNTKVDKKVEPKSCDKTHTCPPCPAPEAAGGPSVFLFPPKPKDTLMISRTPEVTCVVVDVSHEDPEVKFNWYVDGVEVHNAKTKPREEQYNSTYRVVSVLTVLHQDWLNGKEYKCKVSNKALPASIEKTISKAKGQPREPQVYTLPPSREEMTKNQVSLSCAVKGFYPSDIAVEWESNGQPENNYKTTPPVLDSDGSFFLVSKLTVDKSRWQQGNVFSCSVMHEALHNRYTQKSLSLSPGK
light: QAVVTQEPSLTVSPGGTVTLTCGSSTGAVTTGHYANWVQQKPGQAPRGLIGGTSNRAPGVPARFSGSLLGGKAALTISGAQPEDEAEYYCALWYSNRWVFGGGTKLTVLGQPKAAPSVTLFPPSSEELQANKATLVCLISDFYPGAVTVAWKADSSPVKAGVETTTPSKQSNNKYAASSYLSLTPEQWKSHRSYSCQVTHEGSTVEKTVAPTECS
notes: also called 188; bispecific 188
Turning to B5, in test [2], the dissociation constant Kd stood at 1.6 nM, the koff was 0.0036 s⁻¹ and the kon amounted to 2.2e+06 M⁻¹ s⁻¹.

B6: hCD4D1.22 Fc AAS + W + YTE/huSP34.41.13 AAS + SAV + R (bispecific antibody, human IgG1, lambda, L234A L235A)
chain: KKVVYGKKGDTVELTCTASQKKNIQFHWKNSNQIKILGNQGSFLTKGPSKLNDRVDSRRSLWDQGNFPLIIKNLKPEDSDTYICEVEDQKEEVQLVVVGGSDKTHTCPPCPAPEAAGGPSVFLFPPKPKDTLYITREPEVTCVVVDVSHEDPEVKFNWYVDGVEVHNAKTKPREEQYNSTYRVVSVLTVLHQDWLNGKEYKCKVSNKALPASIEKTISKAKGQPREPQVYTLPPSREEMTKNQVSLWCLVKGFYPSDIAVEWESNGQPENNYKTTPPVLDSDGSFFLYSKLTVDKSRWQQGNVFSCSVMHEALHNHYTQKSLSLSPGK
heavy: EVQLVESGGGLVQPGGSLSLSCAASGFTFNTYAMNWVRQAPGKGLEWVGRIRSKYNNYATYYADSVKSRFTISRDDSKNSLYLQMNSLRTEDTAVYYCVRHGNFGHSYVSWFAYWGQGTLVTVSSASTKGPSVFPLAPSSKSTSGGTAALGCLVKDYFPEPVTVSWNSGALTSGVHTFPAVLQSSGLYSLSSVVTVPSSSLGTQTYICNVNHKPSNTKVDKKVEPKSCDKTHTCPPCPAPEAAGGPSVFLFPPKPKDTLMISRTPEVTCVVVDVSHEDPEVKFNWYVDGVEVHNAKTKPREEQYNSTYRVVSVLTVLHQDWLNGKEYKCKVSNKALPASIEKTISKAKGQPREPQVYTLPPSREEMTKNQVSLSCAVKGFYPSDIAVEWESNGQPENNYKTTPPVLDSDGSFFLVSKLTVDKSRWQQGNVFSCSVMHEALHNRYTQKSLSLSPGK
light: QAVVTQEPSLTVSPGGTVTLTCGSSTGAVTTGHYANWVQQKPGQAPRGLIGGTSNRAPGVPARFSGSLLGGKAALTISGAQPEDEAEYYCALWYSNRWVFGGGTKLTVLGQPKAAPSVTLFPPSSEELQANKATLVCLISDFYPGAVTVAWKADSSPVKAGVETTTPSKQSNNKYAASSYLSLTPEQWKSHRSYSCQVTHEGSTVEKTVAPTECS
Take B6: in test [2], the affinity, expressed as Kd, was 2 nM; the off-rate (koff) came to 0.0047 s⁻¹; the kon amounted to 2.4e+06 M⁻¹ s⁻¹.
